B1: TPR 5TU (parent)
chain: GGAUCUUCUCGAUCUAACAAAAAAGACAAAUCUGCCACAAAGCUUGAGAGCAUCUUCGGAUGCAGAGGCGGCAGCCUUCGGUGGCGCGAUAGCGCCAACGUUCUCAACUAUGACACGCAAAACGCGUGCUCCGUUGAAUGGAGUUUAUCAUG

This sample holds only a part of the variants without activity. Some results are limits rather than exact numbers.

Variants of B1 are the subject of this data set. The data set is described as follows: polymerase ribozyme fitness, log enrichment relative to wild type (log ratio); higher = more active; in vitro selection for triplet polymerase activity. In short, it runs like this: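 Input and output libraries were sequenced on Illumina after a single in vitro selection round, run in triplicate on PCR-built, transcribed mutant libraries of each subunit of a heterodimeric triplet polymerase ribozyme. Selection annealed libraries to a biotinylated primer, the partner subunit and triplets, incubated them frozen at −7 °C, then gel-excised extended constructs for streptavidin-bead capture and RT-PCR. Genotypes with ≥10 input reads and ≥1 read per output were kept. Fitness is the logarithm, taken in base 2, of genotype enrichment divided by wild-type enrichment, using inverse-variance-weighted replicate averages.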
As to A12U A17G C57A A98U, the “polymerase ribozyme fitness (log ratio)” value was -0.729. For A12C A52G the value was -0.179; for A12C C85U C116A A122G G143U, not above -4.2.

In the case of A12G A91G A106G, the “polymerase ribozyme fitness (log ratio)” value was -2.04. As for A12G A40U A60C G88U G117C, the figure is not above -4.2.

For A12C A23G U31C U55A, the “polymerase ribozyme fitness (log ratio)” value was not above -4.2. Consider A12G U55A U61G C125G, for which the “polymerase ribozyme fitness (log ratio)” value was -3.62. As for A12G A30U U146G, the figure is -3.66. For A12C A20U U61A G92U C131A the value was not above -4.2; for A12G C63U, -0.0387; for A12C A16U U61A C125A, -3.45.

On to A12G U45A A52U U55A C79G G81A A98G, for which the “polymerase ribozyme fitness (log ratio)” value was not above -4.2. For G11U A26U G83A the value was -4.06; for A12U A28C C57U G68A G92C G126U, not above -4.2. For A12U A17U A22C G34C U55A U56A C57U A64C C95U the value was not above -4.2; for A12C A19C C99U, -1.52. For A12C A19C A122G U146C the value was -1.62. With G11U C57G A119U A121G C149U, the “polymerase ribozyme fitness (log ratio)” value is -2.88. For G11U U44A G92C the value was not above -4.2. For the variant G11U C14G G34U G84U G141U, the “polymerase ribozyme fitness (log ratio)” value is not above -4.2. In the case of A12G C14G A17G C75U A91G C105U A106G A121U A137U, the “polymerase ribozyme fitness (log ratio)” value was not above -4.2. For A12G C38U C99U the value was -0.24; for A12G C57G G59A C96U U127G, -3.86.

In the case of A12C G71U C93U A97G C103U C131G G141C, the “polymerase ribozyme fitness (log ratio)” value is not above -4.2. Turning to A12C A17U U53A C96A U139G, the “polymerase ribozyme fitness (log ratio)” value is -3.83. Take A12G A52C C93U A98U G124A: the “polymerase ribozyme fitness (log ratio)” value is -2. A12G G48C U56A G70A G83U: the “polymerase ribozyme fitness (log ratio)” value is not above -4.2.

A12G C14G A22G U61A G71A C99U C123U A142G: the “polymerase ribozyme fitness (log ratio)” value is not above -4.2. As for G11U G86C, the “polymerase ribozyme fitness (log ratio)” value was -3.55.

A12C A23C C54A G81U G92C C99A: the “polymerase ribozyme fitness (log ratio)” value is not above -4.2. For A12G A37U U55G A113C, the “polymerase ribozyme fitness (log ratio)” value is not above -4.2. As for G11U A26U U61G G84U C85A C96A U139A, the figure is not above -4.2; as for A12U A28U A41U U53G U56G G84A A91G C93G G140U, not above -4.2. As for A12U A23G C87U, the figure is -3.67. For A12G C57G G83U A115G the value was -2.09. As for A12G C14G G92C, the “polymerase ribozyme fitness (log ratio)” value was -2.86. For the variant A12G U15C A37G U44A U56A C69U C87U, the “polymerase ribozyme fitness (log ratio)” value is not above -4.2. On to A12G A19C A20G A22C A28G A30G C57A G59A G84A U101G A115U G136U, for which the “polymerase ribozyme fitness (log ratio)” value is not above -4.2. As for A12G U53A G68A A107U, the figure is not above -4.2; as for A12G C27U A40U A73G C87G C95A G124U G136A, not above -4.2. As for A12C U15A U56A, the figure is -0.709; as for A12G C14U, -0.925. For the variant A12U C27A A52C G71C C105U, the “polymerase ribozyme fitness (log ratio)” value was not above -4.2.

As to A12C G59A G84A C118U A121G A122C G126U, the “polymerase ribozyme fitness (log ratio)” value was -3.86. As for A12U A16U C51A G94A U109C A113G C116A U144A, the “polymerase ribozyme fitness (log ratio)” value was not above -4.2. As for A12U A49C G100U U146G, the figure is not above -4.2; as for A12G A41U C85U U101G C105A G140U G152U, -4.09; as for A12C C96U, -0.42.

Take A12U C38G G50A A66C: the “polymerase ribozyme fitness (log ratio)” value was not above -4.2.

Consider A12U A91U, for which the “polymerase ribozyme fitness (log ratio)” value is not above -4.2. As for A12U A91G, the figure is -2.26; as for A12G G59A G94C, -0.564; as for A12U A26C C35A U55C G59C C76A C93A U111C A138G U144A, not above -4.2. As for A12G A29U U44C G50C A91C C93G G94C C116U U144A, the figure is not above -4.2. In the case of A12G A37G C87U U109G U144C U145C C149G, the “polymerase ribozyme fitness (log ratio)” value was not above -4.2. As for A12U A110G, the figure is -3.35; as for A12G A23U C35U C76A C93U A97U C116A, -3.12. As for A12G A19U A41U G50C C85U G133A U148C, the figure is not above -4.2. As for A12G C14G A22C A37C G88C G143C, the figure is not above -4.2; as for A12U A21U C38A A106U C116A A119G, -3.18.

In the case of A12G C75G C93U C108U A110C, the “polymerase ribozyme fitness (log ratio)” value is not above -4.2. For A12U C35U A91G the value was -3.67; for A12G A24G C35A U44G G50C G71C G124A, not above -4.2; for A12G A39U G42C C57A G59C C79A U134A, not above -4.2. As for A12G A22C A66U C69U G92A, the figure is not above -4.2. As for A12G G58A A91U U109G, the “polymerase ribozyme fitness (log ratio)” value was -3.78. For the variant A12G U55A G71A G80C, the “polymerase ribozyme fitness (log ratio)” value was not above -4.2. For A12U A22U C27U A40G C69A U78A G94A A115C A119U G124A, the “polymerase ribozyme fitness (log ratio)” value was not above -4.2.

Consider G11U G74U G81U G88C A89G C95U G128U U148A, for which the “polymerase ribozyme fitness (log ratio)” value is not above -4.2. As for A12G A24U G34A G92U G126C, the figure is -1.83.

In the case of A12G U56G C85G, the “polymerase ribozyme fitness (log ratio)” value is -2.2. As for A12G A98U, the figure is -0.71; as for A12C A52C C54U U145A, -3.53. As for A12G A20U A29U U53G A66C, the figure is -4.16; as for A12G G81A G92A C114A G152U, not above -4.2.

G11U U90A A119U G133C: the “polymerase ribozyme fitness (log ratio)” value was not above -4.2.

For the variant A12U C36G G86A A110C U139A, the “polymerase ribozyme fitness (log ratio)” value is -4.11.

In the case of A12G C116G, the “polymerase ribozyme fitness (log ratio)” value is 0.204. On to A12G U151G, for which the “polymerase ribozyme fitness (log ratio)” value was -4.06. A12U C14U G50C A60G G74U C85U: the “polymerase ribozyme fitness (log ratio)” value was not above -4.2. As to G11U C54A, the “polymerase ribozyme fitness (log ratio)” value was -2.47. With A12G U13A U31A C57A G65A C85G, the “polymerase ribozyme fitness (log ratio)” value was not above -4.2. For the variant A12C A20G A37C C51U G58C A91C, the “polymerase ribozyme fitness (log ratio)” value is not above -4.2. As for A12U C35G A60C U61A C76A G124U, the figure is not above -4.2.

(Values after the RNAGym collection of RNA variant scans (doi:10.1073/pnas.2313332121).)
